Test results reported in patent US20160193294A1 (UNIVERSITY OF QUEENSLAND, published 2016).

Tests used:
[1] = biological target: T1, recombinant protein made of the entire extracellular domain of mouse P-selectin fused to the Fc fragment of … (mouse; human, UniProt Q01102 42-709); experiment: cell adhesion assay: calcein-labelled cells of wild-type and knock-out mice on wells coated with the fusion protein
T1 construct: extracellular domain; Bought from R&D Systems and adsorbed to polystyrene wells at 3 ug/ml; also called muPsel-IgG1Fc; muP-selectin-IgG1Fc; not shown: Fc fragment of human IgG1
T1 sequence (looked up): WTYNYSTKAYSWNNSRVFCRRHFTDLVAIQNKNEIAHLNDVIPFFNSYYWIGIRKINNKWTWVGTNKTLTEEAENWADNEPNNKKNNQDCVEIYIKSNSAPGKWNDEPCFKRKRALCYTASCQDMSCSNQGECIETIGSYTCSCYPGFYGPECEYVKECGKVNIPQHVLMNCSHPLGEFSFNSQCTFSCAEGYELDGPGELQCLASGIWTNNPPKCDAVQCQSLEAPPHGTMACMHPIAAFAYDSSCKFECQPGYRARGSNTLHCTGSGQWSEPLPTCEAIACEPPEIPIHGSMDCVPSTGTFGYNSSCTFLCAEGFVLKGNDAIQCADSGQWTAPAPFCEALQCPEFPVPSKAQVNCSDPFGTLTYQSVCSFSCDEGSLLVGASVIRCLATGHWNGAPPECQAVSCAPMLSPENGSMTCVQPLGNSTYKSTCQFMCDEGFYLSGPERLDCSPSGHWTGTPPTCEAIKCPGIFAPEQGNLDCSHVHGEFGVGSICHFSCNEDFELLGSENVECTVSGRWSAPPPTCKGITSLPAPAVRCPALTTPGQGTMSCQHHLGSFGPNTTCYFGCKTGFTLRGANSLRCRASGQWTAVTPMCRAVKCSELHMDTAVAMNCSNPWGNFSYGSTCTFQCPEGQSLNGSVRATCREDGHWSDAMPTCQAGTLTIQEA
Description: 96-well polystyrene cell culture plates were coated overnight at 4*C with 50 μL per well of phosphate buffered saline containing 3 μg/ml of recombinant proteins made of the entire extracellular domain of mouse E-selectin, P-selectin or VCAM-1/CD106 fused to the Fc fragment of human IgG1 (muEsel-IgG1Fc, muPsel-IgG1Fc, or muVCAM1-IgG1Fc respectively, from R&D Systems)) as previously described 8. Prior to the experiment, plates were flicked to remove excess coating solution and filled with Hepes buffered saline supplemented with 2% bovine serum albumin to block non-specific adhesion to plastic surfaces. […]
Bone marrow cells from CD44 KO, PSGL1 KO and CD44-PSGL1 double KO mice were stained with FITC-conjugated biotinylated rat monoclonal antibodies specific for CD3, CD5. […] Lineage-negative CD117-positive hematopoietic progenitor cells were then sorted by fluorescence activated cell sorting on an Aria cell sorter (BD Biosciences).
Sorted Lineage-negative CD117-positive hematopoietic progenitor cells when then washed and resuspended in cell adhesion buffer and labelled with the intracellular fluorescent dye calcein-AM (Molecular Probes) for 40 minutes at 37° C. […] The fluorescence contained in the remaining adherent cells was measured on a Fluorostar plate fluorometer following exciting at 488 nm using a 530 nm filter.

[2] = biological target: T2, recombinant human E-selectin extracellular domain fused with the Fc fragment of human IgM (human, UniProt P16581 22-556); experiment: flow cytometry: soluble selectin-IgMFc on bone marrow granulocytes of wild-type and knock-out mice
T2 construct: extracellular domain; Used as COS7 supernatant (pCDM8 plasmid); It was pre-complexed with Cy5-conjugated donkey anti-human IgM F(ab)'2 before the assay; also called E-selectin-IgMFc; selectin-IgMFc; not shown: Fc fragment of human IgM
T2 sequence (looked up): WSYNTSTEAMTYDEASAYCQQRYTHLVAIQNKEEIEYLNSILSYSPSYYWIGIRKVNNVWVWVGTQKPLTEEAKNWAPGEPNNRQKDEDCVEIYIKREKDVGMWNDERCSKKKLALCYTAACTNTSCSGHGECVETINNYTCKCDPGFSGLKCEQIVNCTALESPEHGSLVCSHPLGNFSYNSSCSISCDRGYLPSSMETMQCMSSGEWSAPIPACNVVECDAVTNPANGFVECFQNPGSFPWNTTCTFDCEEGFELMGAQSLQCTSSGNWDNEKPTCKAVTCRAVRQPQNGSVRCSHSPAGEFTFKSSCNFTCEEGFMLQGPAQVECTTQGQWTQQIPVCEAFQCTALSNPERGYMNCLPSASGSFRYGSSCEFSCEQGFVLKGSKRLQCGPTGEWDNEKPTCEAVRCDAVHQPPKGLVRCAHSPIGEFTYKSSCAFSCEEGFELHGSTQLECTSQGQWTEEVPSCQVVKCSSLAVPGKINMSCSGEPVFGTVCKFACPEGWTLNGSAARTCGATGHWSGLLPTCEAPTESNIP
From the text: In a second assay, binding of recombinant E-selectin and P-selectin was directly measured in solution by flow cytometry. For this purpose, recombinant human P-selectin or E-selectin extracellular domains fused with the Fc portion of human IgM were used as selectins required prior clustering to bind to their cellular receptors. As IgM are decameric proteins, each fusion recombinant protein is a decamer or either P-selectin or E-selectin. The clustering resulting from decamerization of selectin enables them to directly interact in solution with their cellular receptors. The inventors therefore measured the binding of recombinant selectin-IgM Fc fusion proteins to bone marrow cells isolated from wild-type, PSGL1−/−, CD44−/− or PSGL1−/−CD44−/− double KO mice. Detection by flow cytometry was performed by pre-complexing the selectin-IgMFc fusion proteins with a Cy5-conjubated donkey anti-human IgM antibody. […] Thus these experiments confirm that PSGL1 and CD44 are necessary and sufficient for E-selectin binding to mature granulocytes, hematopoietic stem cells can bind and adhere to E-selectin via alternative receptors which are not encoded by the PSGL1 and C44 genes.
Prior to the experiment, recombinant selectin-IgMFc fusion proteins were complexed with Cy5-conjugated donkey IgG F(ab)′2 fragments anti-human IgM. […]

B1: P-selectin glycoprotein ligand-1 (mouse, on bone marrow cells) (receptor, UniProt Q62170 42-397, looked up)
chain: QVVGDDDFEDPDYTYNTDPPELLKNVTNTVAAHPELPTTVVMLERDSTSAGTSERATEKIATTDPTAPGTGGTAVGMLSTDSATQWSLTSVETVQPASTEVETSQPAPMEAETSQPAPMEAETSQPAPMEAETSQPAPMEADTSQPAPMEAETSQPAPNEAETSKPAPTEAETSKPAPTEAETTQLPRIQAVKTLFTTSAATEVPSTEPTTMETASTESNESTIFLGPSVTHLPDSGLKKGLIVTPGNSPAPTLPGSSDLIPVKQCLLIILILASLATIFLVCTVVLAVRLSRKTHMYPVRNYSPTEMICISSLLPEGGDGAPVTANGGLPKVQDLKTEPSGDRDGDDLTLHSFLP
notes: whole, on cells; also called PSGL-1; PSGL1
binding result [1]: binds
binding result [2]: binds
